Columns and labels:
[1] = target: DENV-3 VLP (Dengue virus serotype 3); experiment: BLI (Octet-HTX), IgG captured on Protein A biosensor, 5 ug/mL DENV-VLP
[2] = target: DENV-3 VLP (Dengue virus serotype 3); experiment: BLI (Octet-HTX), IgG captured on Protein A biosensor, 5 ug/mL DENV-VLP, 1:1 model

4G2 (antibody)
response [1]: 0.316 | koff [2]: 0.000345 s⁻¹

Source: US20260070961A1
